Test results: article PMC7504508 (International Journal of Molecular Sciences, 2020)

Target: calmodulin (UniProt P0DP23 1-149)
Test: SPR; GST-Sumo-Cx35 fusion proteins captured by immobilised anti-GST antibodies on a CM5 chip (Biacore 2000); calmodulin as analyte, 3 nM to 30 µM; GST-Sumo reference flowcell subtracted; 1 mM free Ca2+, 0.5 mM free Mg2+, 140 mM KCl, 10 mM MOPS pH 7.2, 0.05% Tween 20; first order ligand binding model
Conditions: both partners purified

Kd: 6.29 µM
B1: GST-Sumo fusion protein of the perch Connexin 35 intracellular loop (amino acids 101-192) (domain or fragment)
chain: SAKQKERRYSTVYLTLDKDQDSLKRDESKKIKNTIVNGVLQNTENSTKEAEPDCLEVKEIPNSAMRTTKSKMRRQEGISRFYIIQVVFRNAL
